Here are results for one molecule from US20250277030A1, “ANTI-NAPI2B ANTIBODIES AND METHODS OF USE” (Zymeworks BC Inc., priority 2022, published 2025).

Experiment [1] in a line: NS-ELISA non-specific binding, heparin. The note with it: mAb at 100 nM. As for the experimental part:
(§1) The isoelectric point was measured by capillary isoelectric focusing (cIEF), the propensity for self-aggregation was measured by Affinity-capture self-interaction nanoparticle spectroscopy (AC-SINS) and non-specific binding was measured by NS-ELISA, as described below.
(§2) NS-ELISA was used to measure the propensity of the antibodies to bind to a range of biomolecules to emulate the undesirable non-specific interactions to biological matrices in vivo as described below.
(§3) NS-ELISA was carried out in Corning®96-well EIA/RIA Easy Wash™ Clear Flat Bottom Polystyrene High Bind Microplate coated overnight at 4° C. with 50 μL of Heparin (Sigma, H3149) diluted with 50 mM sodium carbonate pH 9.6 to a final concentration of 250 μg/mL. The plate was incubated for 2 days at room temperature, wells that were coated with heparin were not covered to allow air dry. […] Reactions were stopped after approximately 10 minutes by adding 100 μL of 1 M HCl to each well, and absorbance was read at 450 nm. Binding scores were calculated as the ratio of the ELISA signal of the antibody (antibody-treated) to the signal of a well containing buffer instead of the primary antibody (untreated). The cutoffs considered for each binding molecule (ssDNA, KLH, insulin, dsDNA and heparin) were internally calculated, based on the average of Zymeworks Inc. produced antibodies and antibodies benchmarks published in the literature.
A general note: An ELISA detects its analyte on a solid surface through an enzyme-linked reagent.

The next experiment deals with KLH. Kind of experiment: NS-ELISA non-specific binding, KLH. The note with it: mAb at 100 nM. As for the experimental part:
as §1, §2, §3

For the next experiment, the system named is cynomolgus NaPi2b. Kind of experiment: Flow cytometry binding to HEK293-6e cells transfected with cynomolgus NaPi2b (Example 5). The settings on record: transfected HEK293-6e cells. How it is done: The binding cross-reactivity of humanized antibody variant v29456 to human, cynomolgus and mouse NaPi2b was assessed by flow cytometry using HEK293-6e transfected cells.
Briefly, HEK293-6e cells were transfected for ˜24 hours to transiently express human NaPi2b, cynomolgus or mouse NaPi2b, at 1 μg of DNA per 1 million cells. Following transfection, 50,000 cells per well were seeded in V-bottom 96-well plates and incubated with 200 nM of primary antibody for 18-24 hours at 4° C. to prevent internalization. Post-incubation, cells were washed and stained with anti-Human IgG Fc AF647 conjugate (Jackson Immuno Research Labs, West Grove, PA, Cat. No. 109-605-098, Lot. No. 124868) at 4° C. for 1 hour. Following staining and washing, fluorescence was detected by flow cytometry on BD LSRFortessa™ Cell Analyzer (BD Biosciences, Franklin Lake, NJ) with 10,000 minimum events collected per well. The AF647/APC-A GeoMean (fluorescence signal geometric mean, proportional to anti-Human AF647 binding) was calculated for the live singlet cell population for each primary antibody using FlowJo™ v8 software (BD Biosciences, Franklin Lake, NJ). The Bmax and Kd of each primary antibody were calculated using GraphPad Prism Version 9 (GraphPad Software, San Diego, CA)
A general note: In flow cytometry, cells or beads pass a laser one at a time.

The next experiment has as its target T1, Insulin (Homo sapiens, UniProt P01308).
T1 construct: purchased Sigma-Aldrich 19278
Kind of experiment: NS-ELISA non-specific binding, insulin. The note with it: mAb at 100 nM. How it is done:
as §1, §2, §3

Sequence of cynomolgus NaPi2b (as listed by the source): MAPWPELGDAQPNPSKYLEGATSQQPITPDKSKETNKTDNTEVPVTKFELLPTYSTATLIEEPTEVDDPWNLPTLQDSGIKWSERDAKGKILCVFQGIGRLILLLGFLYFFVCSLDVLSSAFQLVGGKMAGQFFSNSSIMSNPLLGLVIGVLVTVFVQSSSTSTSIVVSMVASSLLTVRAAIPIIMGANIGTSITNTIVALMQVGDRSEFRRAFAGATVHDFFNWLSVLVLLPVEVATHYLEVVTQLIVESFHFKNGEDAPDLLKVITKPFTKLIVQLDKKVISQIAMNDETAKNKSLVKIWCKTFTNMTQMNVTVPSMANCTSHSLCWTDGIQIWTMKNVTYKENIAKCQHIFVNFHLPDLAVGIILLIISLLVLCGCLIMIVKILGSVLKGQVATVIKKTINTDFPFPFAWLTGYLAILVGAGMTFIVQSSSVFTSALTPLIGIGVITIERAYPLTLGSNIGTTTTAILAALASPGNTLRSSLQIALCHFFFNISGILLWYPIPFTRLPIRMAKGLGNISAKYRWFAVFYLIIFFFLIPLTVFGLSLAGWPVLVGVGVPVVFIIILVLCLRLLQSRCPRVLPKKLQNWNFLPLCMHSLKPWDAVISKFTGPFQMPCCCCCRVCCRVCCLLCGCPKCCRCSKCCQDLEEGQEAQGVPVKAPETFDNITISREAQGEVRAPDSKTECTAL
T1 sequence (P01308 25-54 limits assumed): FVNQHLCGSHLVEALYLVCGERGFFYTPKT
T1 sequence (P01308 90-110 limits assumed): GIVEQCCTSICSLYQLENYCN

B1: v29456: humanized anti-NaPi2b IgG1/kappa antibody H1L2; VH SEQ ID NO:24, VL SEQ ID NO:29 (antibody, V domains shown)
VH: QVQLVQSGAEVKKPGASVKVSCKASGFTFTSYNVHWVRQAPGQGLEWMGAISPGNGDLSYAQKFQGRVTMTRDTSTSTVYMELSSLRSEDTAVYYCARGRTGMGAVDYWGQGTLVTVSS
VL: DVQMTQSPSSLSASVGDRVTITCRASQDVYSYLNWYQQKPGKAVKLLIYYTSRLQSGVPSRFSGSGSGTDYTLTISSLQPEDFATYYCQQYNIFPWTFGQGTKLEIK
modifications: v29452, v29456, v29460 VH (H1); v29453, v29454, v29455, v29456 VL (L2)
For the molecule B1, in experiment [1], the “NS-ELISA binding score (ratio of signal between antibody-treated and untreated), Heparin” value worked out at 1.06. Moreover, in the experiment with KLH, the “NS-ELISA binding score (ratio of signal between antibody-treated and untreated), KLH” value worked out at 1.37. In the experiment with cynomolgus NaPi2b, the “apparent Kd on cynomolgus NaPi2b, fold lower than v18992 (MX35)” value is recorded as 10 fold. For the same molecule, the “Bmax (APC-A GeoMean), Cyno NaPi2b” value with cynomolgus NaPi2b (18-24 hours at 4° C.) was 2,006 APC-A GeoMean. Besides, the Kd with cynomolgus NaPi2b (18-24 hours at 4° C., highest antibody concentration 200 nM, read-out: Apparent Kd (nM), Cyno NaPi2b) was determined as 3.2 nM. Besides, in the experiment with Insulin, the “NS-ELISA binding score (ratio of signal between antibody-treated and untreated), Insulin” value was found to be 1.05.
